Earlier results in paper PMC6273919.

Target: NF-kappa-B p50 (Homo sapiens) (UniProt P19838)
Sequence of UniProt P19838 (P19838 1-433): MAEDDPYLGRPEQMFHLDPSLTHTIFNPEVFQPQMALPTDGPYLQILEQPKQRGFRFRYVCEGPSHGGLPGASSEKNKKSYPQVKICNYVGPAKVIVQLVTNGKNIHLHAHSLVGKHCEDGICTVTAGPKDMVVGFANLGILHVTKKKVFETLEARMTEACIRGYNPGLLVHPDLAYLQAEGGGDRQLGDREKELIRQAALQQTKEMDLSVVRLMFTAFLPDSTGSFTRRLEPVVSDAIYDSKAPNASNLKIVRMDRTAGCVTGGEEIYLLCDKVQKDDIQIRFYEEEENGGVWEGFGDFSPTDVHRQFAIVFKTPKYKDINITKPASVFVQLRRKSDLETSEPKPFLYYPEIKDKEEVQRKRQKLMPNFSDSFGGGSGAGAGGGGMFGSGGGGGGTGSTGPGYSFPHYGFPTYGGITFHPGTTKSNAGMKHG

Melittin (from UniProt P01501)
Kd: 12 nM
